Tests used:
primary human T-cells = test: Eltrombopag and IL-2 on CrGFR sorted (CD110+) primary human T-cells, up to 7 days; format: cell-based; details: second donor (FIG. 12)
Protocol: (§1) FIG. 10—Analysis of Eltrombopag and IL-2 on CrGFR sorted primary human T-cells from Donor 4. Primary human T-cells from donor 4 were transduced with the WT TpoR or variant CrGFR, and enriched for expression by Miltenyi MACS technology selected for and incubated in the presence of IL2 or Eltrombopag. Cells were removed at time points up to 7 days and the number of cells expressing the receptor assessed using PE conjugated anti-CD110 antibodies, DRAQ7 viability dye and a MACSQuant analyser.
as §1, with “11—Analysis” for “10—Analysis”, “5.” for “4.”, “5” for “4”
as §1, with “12—Analysis” for “10—Analysis”, “6.” for “4.”, “6” for “4”
Paramagnetic bead sorts were conducted as per the manufacturers' instructions using either anti-PE microbeads (Miltenyi Biotec or StemCell Technologies), or T-cell isolation beads (17951: StemCell Technologies).
Next Applicants repeated the experiment but sorted the CrGFR+ cells using CD110+ selection by paramagnetic bead selection using the receptors identified from the first round of selections (FIGS. 10, 11 and 12). Applicants observed enhanced survival of T-cells engrafted with the majority of the CrGFR in all three donors. In particular Applicants saw expansion of WT-TpoR, TpOR.CD40, TpOR.IL2rγ and TpoR.LMP1-cyto cells in the second donor (FIG. 12) above that with media alone.

T-cells = details: via administration of Tpo or Eltrombopag; cited from earlier work
[1] = Previous attempts to modify TpoR (surface expression, activity); format: cell-based; details: previously validated
Text: However attempts to modify the receptor were not always straightforward. […] Furthermore, Applicants felt that they could improve the signalling capacity of TpoR-based receptors in T-cells by including signalling components which activate JAK3, a signalling molecule involved in IL-2 signalling but not in TpoR signalling, and therefore more likely to drive IL-2 like signals in engineered cells.
Applicants therefore aimed to generate fusion receptors wherein additional domains were fused directly to the C-terminus of the TpoR IC domain. Applicants first generated a fusion between TpoR and the IL2rβ signalling domain. […] Applicants therefore took an alternative approach where a hybrid TpoR-IL2rβ signalling domain was created whereby the I2rβ signalling region was fused N- or C-terminal to TpoR signalling domain. Next Applicants generated receptors where the cytoplasmic domain of TIAF1, TLR1, CD150, IL2rγ, CD40, LMP1 and ITAM1 from CD3ζ were fused C-terminal to the TpoR signalling domain. […] Applicants also generated CrGFR consisting of TpoR extracellular and transmembrane domain fused to the cytoplasmic domain of CD28 and CD137 as Applicants felt these would provide a costimulatory growth signal upon Eltrombopag administration, sequences of these constructs are provided below.

B1: WT TpoR: Wild type TpoR, SEQ ID NO: 1, 635 amino acids (protein, listed as Homo sapiens)
chain: MPSWALFMVTSCLLLAPQNLAQVSSQDVSLLASDSEPLKCFSRTFEDLTCFWDEEEAAPSGTYQLLYAYPREKPRACPLSSQSMPHFGTRYVCQFPDQEEVRLFFPLHLWVKNVFLNQTRTQRVLFVDSVGLPAPPSIIKAMGGSQPGELQISWEEPAPEISDFLRYELRYGPRDPKNSTGPTVIQLIATETCCPALQRPHSASALDQSPCAQPTMPWQDGPKQTSPSREASALTAEGGSCLISGLQPGNSYWLQLRSEPDGISLGGSWGSWSLPVTVDLPGDAVALGLQCFTLDLKNVTCQWQQQDHASSQGFFYHSRARCCPRDRYPIWENCEEEEKTNPGLQTPQFSRCHFKSRNDSIIHILVEVTTAPGTVHSYLGSPFWIHQAVRLPTPNLHWREISSGHLELEWQHPSSWAAQETCYQLRYTGEGHQDWKVLEPPLGARGGTLELRPRSRYRLQLRARLNGPTYQGPWSSWSDPTRVETATETAWISLVTALHLVLGLSAVLGLLLLRWQFPAHYRRLRHALWPSLPDLHRVLGQYLRDTAALSPPKATVSDTCEEVEPSLLEILPKSSERTPLPLCSSQAQMDYRRLQPSCLGTMPLSVCPPMAESGSCCTTHIANHSYLPLSYWQQP
modifications: MISC_FEATURE (1)..(491): TpoR Extracellular Domain; MISC_FEATURE (492)..(513): TpoR Transmembrane Domain; MISC_FEATURE (514)..(635): TpoR Cytoplasmic Domain
expansion of CrGFR cells above that with media alone (primary human T-cells): expansion
survival and expansion of engineered T-cells (T-cells): could permit controlled survival and expansion of T-cells
activity in primary human T-cells [1]: can have activity

Source: patent US20210205365A1, “Chimeric Growth Factor Receptors” (Instil Bio (UK) Ltd., priority 2018, published 2021)
